Data reported in patent US20180298360, “CAS9 VARIANTS AND METHODS OF USE THEREOF” (The Regents of the University of California, published 2018).

Target: T1, ΔHNH-Cas9 (ΔHNH-4; T769-K918 replaced by GGSGGS) (Streptococcus pyogenes)
T1 chain: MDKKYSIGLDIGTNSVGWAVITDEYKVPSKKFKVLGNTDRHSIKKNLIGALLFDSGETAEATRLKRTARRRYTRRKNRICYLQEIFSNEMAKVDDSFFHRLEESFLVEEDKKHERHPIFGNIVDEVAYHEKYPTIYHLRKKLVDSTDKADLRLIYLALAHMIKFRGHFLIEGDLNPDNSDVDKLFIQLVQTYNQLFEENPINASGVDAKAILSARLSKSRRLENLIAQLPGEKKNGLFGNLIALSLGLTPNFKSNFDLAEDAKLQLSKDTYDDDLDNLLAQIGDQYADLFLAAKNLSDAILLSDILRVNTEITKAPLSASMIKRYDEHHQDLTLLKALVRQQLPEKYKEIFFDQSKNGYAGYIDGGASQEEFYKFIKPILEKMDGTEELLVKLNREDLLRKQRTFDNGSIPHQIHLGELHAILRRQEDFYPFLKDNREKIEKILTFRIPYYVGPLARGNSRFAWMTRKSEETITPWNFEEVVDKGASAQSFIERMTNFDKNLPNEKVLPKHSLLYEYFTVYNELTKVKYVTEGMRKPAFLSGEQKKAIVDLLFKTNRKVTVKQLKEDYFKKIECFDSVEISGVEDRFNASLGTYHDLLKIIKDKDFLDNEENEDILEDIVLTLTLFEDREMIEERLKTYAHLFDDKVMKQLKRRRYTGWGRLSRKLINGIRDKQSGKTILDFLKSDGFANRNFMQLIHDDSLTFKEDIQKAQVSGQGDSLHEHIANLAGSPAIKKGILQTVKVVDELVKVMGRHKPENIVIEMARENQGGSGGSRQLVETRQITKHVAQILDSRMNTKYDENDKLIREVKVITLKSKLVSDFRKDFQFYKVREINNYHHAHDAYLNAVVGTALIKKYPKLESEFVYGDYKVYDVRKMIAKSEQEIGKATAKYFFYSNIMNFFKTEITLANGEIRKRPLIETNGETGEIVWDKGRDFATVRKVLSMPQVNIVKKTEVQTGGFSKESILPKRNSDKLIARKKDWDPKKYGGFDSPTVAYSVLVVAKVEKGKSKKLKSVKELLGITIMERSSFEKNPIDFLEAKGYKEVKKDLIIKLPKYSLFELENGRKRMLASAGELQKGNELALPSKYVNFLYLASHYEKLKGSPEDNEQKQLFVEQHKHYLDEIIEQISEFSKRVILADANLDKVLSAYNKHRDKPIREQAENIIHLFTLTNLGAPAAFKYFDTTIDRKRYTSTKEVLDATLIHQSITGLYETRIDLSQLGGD
Assay: EMSA; PAM TGG; 5 mM MgCl2, 100 mM KCl, pH 7.5, 50 ug/mL heparin, room temperature, 100 nM sgRNA
Settings: tags: N-terminal His10-MBP, TEV protease treated; label: 5'-radiolabel; single-guide RNA
Description: Binding reactions (15 μL) were performed at room temperature in Reaction Buffer supplemented with 50 μg/mL heparin using <0.1 nM radiolabeled dsDNA substrates. Reactions were resolved by 8% native polyacrylamide gel electrophoresis (0.5×TBE, 5 mM MgCl₂) for 1.5-2 hr at 4° C. in a running buffer containing 0.5×TBE and 5 mM MgCl₂. Reactions were visualized by phosphorimaging (GE Healthcare).
Reactions were resolved by 8% native polyacrylamide gel electrophoresis. […] Solid lines represent fits from binding isotherms.

B1: sgRNA (bacteriophage target) ; 55-bp DNA substrate (ssRNA ; dsDNA)
RNA: GACGCAUAAAGAUGAGACGCGUUUUAGAGCUAUGCUGUUUUGGAAACAAAACAGCAUAGCAAGUUAAAAUAAGGCUAGUCCGUUAUCAACUUGAAAAAGUGGCACCGAGUCGGUGCUUUUUUUGGAUC
DNA 1: AGCAGAAATCTCTGCTGACGCATAAAGATGAGACGCTGGAGTACAAACGTCAGCT
DNA 2: AGCTGACGTTTGTACTCCAGCGTCTCATCTTTATGCGTCAGCAGAGATTTCTGCT
**Q.** B1 was tested. Which Kd did it give?
**A.** Its Kd is 1.2 nM.
